Data reported in patent US20230295301A1 (SHANGHAI JUNSHI BIOSCIENCES, published 2023).

Key:
[1] = target: T1, HXT huCTLA4 his (non-mutated) (human, UniProt P16410 37-162); assay: ELISA: antigen coated at 1.0 µg/mL, huJS007-47 2.5-fold dilutions from 1000 to 0.042 ng/mL, HRP goat anti-human IgG (Fc), OD 450-620 nm; unit from the axis 'Log:ng/mL'
T1 construct: not shown: his-tag
T1 sequence: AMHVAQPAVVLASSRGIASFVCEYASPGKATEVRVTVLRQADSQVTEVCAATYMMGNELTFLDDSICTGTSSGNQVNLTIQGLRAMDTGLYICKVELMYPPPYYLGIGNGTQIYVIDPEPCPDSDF
Description: (§1) The huCTLA-4 mutants used in the ELISA assays included non-mutated HXT huCTLA4 his, and mutated huCTLA4 N-his P27A, huCTLA4 N-his G28A, huCTLA4 N-his K29A and huCTLA4 N-his T31A. HuCTLA-4 his and its mutants were diluted with PBS (Hyclone) to 1.0 μg/mL, and a plate was coated with the dilution, incubated in an incubator at 37° C. for 90 min, washed and then blocked with 2% BSA. After the plate was washed, the monoclonal antibody huJS007-47 (serially diluted 2.5-fold with 2% BSA from 1000 ng/mL to 0.042 ng/mL) was added. The plate was incubated at 37° C. for 60 min and washed. A 1:5000 diluted HRP-conjugated goat anti-human antibody IgG (Fc specific) (Sigma, Catalog No. A0170) was used for detection. The plate was incubated at 37° C. for 60 min and then incubated with HRP substrate TMB (Sigma, Catalog No. T2885) at 37° C. for 15 min for color development. Finally, 2 M of hydrochloric acid was added to terminate the color development; during the addition, bubbles were avoided. Reading (wavelength: 450/620 nm) was done within 10 min using a microplate reader.

huCTLA4 N-his K29A = target: T2, huCTLA4 N-his K29A (human, UniProt P16410 37-162); assay: as above
T2 construct: … changed to …; not shown: N-terminal his-tag
Description: as §1

hCTLA4 Nhis T31A = assay: as above
Description: as §1

huCTLA4 N-his P27A = target: T3, huCTLA4 N-his P27A (human, UniProt P16410 37-162); assay: as above
T3 construct: … changed to …; not shown: N-terminal his-tag
Description: as §1

huCTLA4 N-his G28A = target: T4, huCTLA4 N-his G28A (human, UniProt P16410 37-162); assay: ELISA: huCTLA4 N-his G28A coated at 1.0 µg/mL, huJS007-47 2.5-fold dilutions from 1000 to 0.042 ng/mL, HRP goat anti-human IgG (Fc), OD 450-620 nm
T4 construct: … changed to …; not shown: N-terminal his-tag
Description: as §1

EC50 [1]: 0.0136 µg/mL
EC50 (huCTLA4 N-his K29A): 0.0467 µg/mL
EC50 (hCTLA4 Nhis T31A): 0.0136 µg/mL
EC50 (huCTLA4 N-his P27A): 0.0333 µg/mL
binding result (huCTLA4 N-his G28A): no binding (tested: 1000 ng/mL (log 3))
B1: huJS007-47 (antibody, human IgG1, kappa, V domains shown)
VH: QVQLQESGPGLVKPSQTLSLTCTVSAYSITSGYYWNWIRQHPGKGLEWIGYIGYDGSNNYNPSLKSRVTISRDTSKNQFSLKLSSVTAADTAVYYCARDYYSGYFDSWGQGTTLTVSS
VL: DIQMTQSPSSLSASVGDRVTITCRASQNVGTYVAWYQQKPGKVPKPLIYSTSYRYSGVPSRFSGSGSGTDFTLTISSLQPEDVATYFCHQYDTYPLTFGAGTKLELKR
notes: also called JS007 antibody; monoclonal antibody huJS007-47
